Measured values taken from paper PMC5871715 (2018).

B1: full-length human Draxin AVEXIS prey, wild type [human] / human Netrin-1 WT bait protein (VI+V), AVEXIS [human] (parent complex)
chain 1: GALAPGTPARNLPENHIDLPGPALWTPQASHHRRRGPGKKEWGPGLPSQAQDGAVVTATRQASRLPEAEGLLPEQSPAGLLQDKDLLLGLALPYPEKENRPPGWERTRKRSREHKRRRDRLRLHQGRALVRGPSSLMKKAELSEAQVLDAAMEESSTSLAPTMFFLTTFEAAPATEESLILPVTSLRPQQAQPRSDGEVMPTLDMALFDWTDYEDLKPDGWPSAKKKEKHRGKLSSDGNETSPAEGEPCDHHQDCLPGTCCDLREHLCTPHNRGLNNKCFDDCMCVEGLRCYAKFHRNRRVTRRKGRCVEPETANGDQGSFINV
chain 2: not shown

Variants of: B1
Experiment: AVEXIS; average of three repeats; read off a plot

response [A486 nm] | Variant
~0.021 | chain 1 F208R
~0.055 | chain 1 F208A
~0.037 | chain 1 F208P
~0.005 | chain 1 L203P
~0.004 | chain 1 L203R
~0.004 | chain 1 L203A
